Laboratory results reported in patent publication US20120263722A1 (AbbVie / Abbott, published 2012).

Assays:
[1] = target: T1, CD-22 on the cell surface (human, UniProt P20273 20-847); experiment: flow cytometry on cells carrying the target, antibody or DVD-Ig at 2 ug/mL
T1 construct: whole, on cells
Experimental: (§1) Binding of monoclonal antibodies to the surface of human tumor cell fines was assessed by flow cytometry. For example, stable cell lines overexpressing a cell-surface antigen of interest or human tumor cell lines were harvested from tissue culture flasks and resuspended in phosphate buffered saline (PBS) containing 5% fetal bovine serum (PBS/FBS). Prior to staining, human tumor cells were incubated on ice with (100 μl) human IgG at 5 μg/ml in PBS/FCS. 1-5×10⁵ cells were incubated with antibody or DVD-Ig (2 μg/mL) in PBS/FBS for 30-60 minutes on ice. […] After 30 minutes incubation on ice, cells were washed twice and resuspended in PBS/PBS. Fluorescence was measured using a Becton Dickinson FACSCalibur (Becton Dickinson, San Jose, Calif.).
(§2) The geometric mean is the n root of the multiplication product of n fluorescent signals (a1×a2×a3 . . . an). With log-transformed data the geometric mean is used to normalize the weighting of the data distribution.

NRP1 on the cell surface = target: T2, NRP1 on the cell surface (human, UniProt O14786 22-923); experiment: as above
T2 construct: whole, on cells; also called neuropilin 1
Experimental: as §1, §2

[2] = target: T3, Recombinant Human Neuropilin-1 (human, UniProt O14786-2 22-644, limits assumed); experiment: SPR (BIACORE), N-terminal variable domain to target antigen
T3 construct: Bought reagent used in the Biacore analyses; also called NRP1; NRP-1
Experimental: The BIACORE assay (Biacore, Inc, Piscataway, N.J.) determines the affinity of antibodies or DVD-Ig with kinetic measurements of on-rate and off-rate constants. Binding of antibodies or DVD-Ig to a target antigen (for example, a purified recombinant target antigen) was determined by surface plasmon resonance-based measurements with a Biacore® 1000 or 3000 instrument (Biacore® AB. Uppsala, Sweden) using running HBS-EP (10 mM HEPES [pH 7.4], 150 mM NaCl, 3 mM EDTA, and 0.005% surfactant P20) at 25° C. All chemicals were obtained from Biacore® AB (Uppsala, Sweden) or otherwise from a different source as described in the text.
For example, approximately 5000 RU of goat anti-mouse IgG, (Fcγ), fragment specific polyclonal antibody (Pierce Biotechnology Inc, Rockford, Ill.) diluted in 10 mM sodium acetate (pH 4.5) is directly immobilized across a CMS research grade biosensor chip using a standard amine coupling kit according to manufacturer's instructions and procedures at 25 μg/ml. Unreacted moieties on the biosensor surface are blocked with ethanolamine. Modified carboxymethyl dextran surface in flowcell 2 and 4 is used as a reaction surface. Unmodified carboxymethyl dextran without goat anti-mouse. IgG in flow cell 1 and 3 is used as the reference surface. For kinetic analysis, rate equations derived from the 1:1 Langmuir binding model are fitted simultaneously to association and dissociation phases of all eight injections (using global fit analysis) with the use of Biaevaluation 4.0.1 software. Purified antibodies or DVD-Ig are diluted in HEPES-buffered saline for capture across goat anti-mouse IgG specific reaction surfaces. Antibodies or DVD-Ig, to be captured as a ligand (25 μg/ml) are injected over reaction matrices at a flow rate of 5 μl/min. The association and dissociation rate constants, kₒₙ(M⁻¹s⁻¹) and koff (s⁻¹) are determined under a continuous flow rate of 25 μl/min. Rate constants are derived by making kinetic binding measurements at different antigen concentrations ranging from 10-200 nM. The equilibrium dissociation constant (M) of the reaction between antibodies or DVD-Igs and the target antigen is then calculated from the kinetic rate constants by the following formula: KD=koff/Kₒₙ. Binding is recorded as a function of time and kinetic rate constants are calculated.

[3] = target: T4, CD-19 on the cell surface (human, UniProt P15391 20-556); experiment: flow cytometry on cells carrying the target, antibody or DVD-Ig at 2 ug/mL
T4 construct: whole, on cells
T4 sequence (looked up): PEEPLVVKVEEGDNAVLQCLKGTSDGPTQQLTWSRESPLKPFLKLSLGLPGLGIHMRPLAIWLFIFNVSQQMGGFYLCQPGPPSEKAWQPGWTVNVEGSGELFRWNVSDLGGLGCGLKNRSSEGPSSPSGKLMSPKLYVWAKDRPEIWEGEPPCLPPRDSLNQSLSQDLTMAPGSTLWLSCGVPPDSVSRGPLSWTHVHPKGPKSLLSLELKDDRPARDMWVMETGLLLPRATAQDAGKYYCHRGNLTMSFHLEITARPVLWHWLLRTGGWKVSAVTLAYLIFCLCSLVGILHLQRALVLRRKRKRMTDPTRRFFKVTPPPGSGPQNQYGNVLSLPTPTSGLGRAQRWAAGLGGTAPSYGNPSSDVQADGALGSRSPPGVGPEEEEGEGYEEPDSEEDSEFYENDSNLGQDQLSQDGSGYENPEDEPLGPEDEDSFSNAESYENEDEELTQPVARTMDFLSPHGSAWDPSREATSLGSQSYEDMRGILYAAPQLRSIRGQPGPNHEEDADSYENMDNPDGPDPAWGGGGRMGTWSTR
Experimental: as §1, §2

[4] = target: T5, CD-80 on the cell surface (human, UniProt P33681 35-288); experiment: as above
T5 construct: whole, on cells
T5 sequence (looked up): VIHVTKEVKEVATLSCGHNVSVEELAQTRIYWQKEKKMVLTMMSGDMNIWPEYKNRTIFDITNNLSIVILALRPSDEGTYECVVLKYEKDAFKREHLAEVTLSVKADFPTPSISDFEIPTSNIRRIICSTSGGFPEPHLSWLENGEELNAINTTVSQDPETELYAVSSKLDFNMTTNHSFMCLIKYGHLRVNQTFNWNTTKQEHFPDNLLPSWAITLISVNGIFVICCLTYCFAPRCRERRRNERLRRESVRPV
Experimental: as §1, §2

B1: DVD1883 (bispecific antibody, human IgG1, kappa)
heavy: not shown
light: DIQLTQSPSSLSASVGDRVTMSCKSSQSVLYSANHKNYLAWYQQKPGKAPKLLIYWASTRESGVPSRFSGSGSGTDFTFTISSLQPEDIATYYCHQYLSSWTFGGGTKLEIKRTVAAPQIVLIQSPAIMSASPGEKVTMTCSASSSVSYMYWYQQKPGSSPRLLIYDTSNLASGVPVRFSGSGSGTSYSLTISRMEAEDAATYYCQQWSGYPYTFGGGTKLEIKRTVAAPSVFIFPPSDEQLKSGTASVVCLLNNFYPREAKVQWKVDNALQSGNSQESVTEQDSKDSTYSLSSTLTLSKADYEKHKVYACEVTHQGLSSPVTKSFNRGEC
notes: Outer domain anti-CD22 (AB008), inner domain anti-IL-6 (AB040); also called DVD1883H; DVD1883L
[1]
  N-Terminal VD GEO MEAN (FACS geometric mean): 223

B2: DVD1889 (bispecific antibody, human IgG1, kappa)
heavy: not shown
light: DIQMTQSPSSLSASVGDRVTITCRASQSISSYLAWYQQKPGKAPKLLIYGASSRASGVPSRFSGSGSGTDFTLTISSLQPEDFATYYCQQYMSVPITFGQGTKVEIKRTVAAPQIVLIQSPAIMSASPGEKVTMTCSASSSVSYMYWYQQKPGSSPRLLIYDTSNLASGVPVRFSGSGSGTSYSLTISRMEAEDAATYYCQQWSGYPYTFGGGTKLEIKRTVAAPSVFIFPPSDEQLKSGTASVVCLLNNFYPREAKVQWKVDNALQSGNSQESVTEQDSKDSTYSLSSTLTLSKADYEKHKVYACEVTHQGLSSPVTKSFNRGEC
notes: also called DVD1889H; DVD1889L
NRP1 on the cell surface
  N-Terminal VD GEO MEAN (FACS geometric mean): 15
[2]
  Kd: 0.5 nM
  koff: 0.00019 s⁻¹
  kon: 380000 M⁻¹ s⁻¹

B3: DVD1879 (bispecific antibody, human IgG1, kappa)
heavy: not shown
light: DILLTQTPASLAVSLGQRATISCKASQSVDYDGDSYLNWYQQIPGQPPKLLIYDASNLVSGIPPRFSGSGSGTDFTLNIHPVEKVDAATYHCQQSTEDPWTFGGGTKLEIKRTVAAPQIVLIQSPAIMSASPGEKVTMTCSASSSVSYMYWYQQKPGSSPRLLIYDTSNLASGVPVRFSGSGSGTSYSLTISRMEAEDAATYYCQQWSGYPYTFGGGTKLEIKRTVAAPSVFIFPPSDEQLKSGTASVVCLLNNFYPREAKVQWKVDNALQSGNSQESVTEQDSKDSTYSLSSTLTLSKADYEKHKVYACEVTHQGLSSPVTKSFNRGEC
notes: Outer domain anti-CD19 (AB006), inner domain anti-IL-6 (AB040); also called DVD1879H; DVD1879L
[3]
  N-Terminal VD GEO MEAN (FACS geometric mean): 1930

B4: AB008 (antibody, V domains shown)
VH: QVQLVQSGAEVKKPGSSVKVSCKASGYTFTSYWLHWVRQAPGQGLEWIGYINPRNDYTEYNQNFKDKATITADESTNTAYMELSSLRSEDTAFYFCARRDITTFYWGQGTTVTVSS
VL: DIQLTQSPSSLSASVGDRVTMSCKSSQSVLYSANHKNYLAWYQQKPGKAPKLLIYWASTRESGVPSRFSGSGSGTDFTFTISSLQPEDIATYYCHQYLSSWTFGGGTKLEIKR
notes: Parent antibody; also called AB008VH; AB008VL
[1]
  N-Terminal VD GEO MEAN (FACS geometric mean): 256

B5: AB007 (antibody, V domains shown)
VH: QVQLQESGPGLVKPSETLSLTCAVSGGSISGGYGWGWIRQPPGKGLEWIGSFYSSSGNTYYNPSLKSQVTISTDTSKNQFSLKLNSMTAADTAVYYCVRDRLFSVVGMVYNNWFDVWGPGVLVTVSS
VL: ESALTQPPSVSGAPGQKVTISCTGSTSNIGGYDLHWYQQLPGTAPKLLIYDINKRPSGISDRFSGSKSGTAASLAITGLQTEDEADYYCQSYDSSLNAQVFGGGTRLTVLG
notes: Parent antibody; also called AB007VH; AB007VL
[4]
  N-Terminal VD GEO MEAN (FACS geometric mean): 82.5

B6: AB016 (antibody, V domains shown)
VH: EVQLVESGGGLVQPGGSLRLSCAASGFSFSSEPISWVRQAPGKGLEWVSSITGKNGYTYYADSVKGRFTISADTSKNTAYLQMNSLRAEDTAVYYCARWGKKVYGMDVWGQGTLVTVSS
VL: DIQMTQSPSSLSASVGDRVTITCRASQSISSYLAWYQQKPGKAPKLLIYGASSRASGVPSRFSGSGSGTDFTLTISSLQPEDFATYYCQQYMSVPITFGQGTKVEIKR
notes: Parent antibody; also called AB016VH; AB016VL
NRP1 on the cell surface
  N-Terminal VD GEO MEAN (FACS geometric mean): 15.4

B7: DVD1881 (bispecific antibody, human IgG1, kappa)
heavy: not shown
light: ESALTQPPSVSGAPGQKVTISCTGSTSNIGGYDLHWYQQLPGTAPKLLIYDINKRPSGISDRFSGSKSGTAASLAITGLQTEDEADYYCQSYDSSLNAQVFGGGTRLTVLGQPKAAPQIVLIQSPAIMSASPGEKVTMTCSASSSVSYMYWYQQKPGSSPRLLIYDTSNLASGVPVRFSGSGSGTSYSLTISRMEAEDAATYYCQQWSGYPYTFGGGTKLEIKRTVAAPSVFIFPPSDEQLKSGTASVVCLLNNFYPREAKVQWKVDNALQSGNSQESVTEQDSKDSTYSLSSTLTLSKADYEKHKVYACEVTHQGLSSPVTKSFNRGEC
notes: Outer domain anti-CD80 (AB007), inner domain anti-IL-6 (AB040); also called DVD1881H; DVD1881L
[4]
  N-Terminal VD GEO MEAN (FACS geometric mean): 134

B8: AB006 (antibody, V domains shown)
VH: QVQLQQSGAELVRPGSSVKISCKASGYAFSSYWMNWVKQRPGQGLEWIGQIWPGDGDTNYNGKFKGKATLTADESSSTAYMQLSSLASEDSAVYFCARRETTTVGRYYYAMDYWGQGTSVTVSS
VL: DILLTQTPASLAVSLGQRATISCKASQSVDYDGDSYLNWYQQIPGQPPKLLIYDASNLVSGIPPRFSGSGSGTDFTLNIHPVEKVDAATYHCQQSTEDPWTFGGGTKLEIKR
notes: Parent antibody; also called AB006VH; AB006VL
[3]
  N-Terminal VD GEO MEAN (FACS geometric mean): 1570
